From the supplement of paper PMC9170038

Tested on: MS2 coat protein
Assay: apparent KD of MS2 coat protein; designed switch direction (-1 OFF switch, 1 ON switch): -1; higher = weaker reporter binding
Outline: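 Three titration conditions were used: no input, 200 uM small-molecule ligand, and an oligonucleotide input. In each, SNAP-549-labelled MS2 coat protein was raised from 0.7 or 1.5 nM, doubling, to 3 µM over designed RNA switches transcribed on Illumina chips by stalled E. coli RNA polymerase. Curve fits of normalised cluster fluorescence gave values whose per-design median over clusters is the apparent KD.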

[1] = input ligand: microRNA oligo, concentration not stated
[2] = Eterna round: R95, input ligand: FMN 200 uM
[3] = Eterna round: R95, input ligand: microRNA oligo, concentration not stated
[4] = Eterna round: R95, input ligand: none

UAAAAGUCAGGAUAUACAUGAGGAUCACCCAUGUAAAAUUUUAAUUUAAUUUUAAGGUGUAGAAGGGACAAUUU [Ex3 #1] (Eterna round: R97, puzzle: Exclusion 3)
apparent KD of MS2 coat protein (input ligand: FMN 200 uM): 32.5 nM | apparent KD of MS2 coat protein (input ligand: none): 34.9 nM

AUGUUGCGAGGAUAUAUUUACUUGUUGUUAUUUGGUUGGGAACAUGAGGAUCACCCAUGUAGAAGGUGCAUAAC [JR_Ex2_Sub035] (Eterna round: R97, puzzle: Exclusion 2)
apparent KD of MS2 coat protein (input ligand: FMN 200 uM): 58.9 nM | apparent KD of MS2 coat protein (input ligand: none): 62.5 nM

ACAUGAGGAUCACCCAUGUCUGGCUGGUCUGCUCCGGUUGUUGAGGAUAUAGUCCGGUGUUCGCGCUAGAAGGUGAGGGCUGGA [Aenatbe mod 40] (Eterna round: R96, puzzle: Exclusion NG 3)
apparent KD of MS2 coat protein (input ligand: FMN 200 uM): 137 nM | apparent KD of MS2 coat protein [1]: 96.4 nM | apparent KD of MS2 coat protein (input ligand: none): 131 nM

UAUAACCGAGGAUAUACAUGAGGAUCACCCAUGUAAUGUAGUAUAGUGUAUGUAAGAUGUAGAAGGUGGGAUGU (Eterna round: R97, puzzle: Exclusion 3)
apparent KD of MS2 coat protein (input ligand: FMN 200 uM): 49.8 nM | apparent KD of MS2 coat protein (input ligand: none): 59 nM

AGUAGUAGUAUCCGAUCCUACAUGAGGAUCACCCAUGUAGCUAGACGUGCACGCGAUGCUCGUCAGACUACCAGAUG [salish99_TOv1_r3_033] (puzzle: Sensor v3, turn-off variant 1)
apparent KD of MS2 coat protein [2]: 195 nM | apparent KD of MS2 coat protein [3]: 184 nM | apparent KD of MS2 coat protein [4]: 253 nM

GCAUCCAAAGUGAGGAUAUACCUCUGGAUACAUAGGUAGAAGGCACAUGAGGAUCACCCAUGUUCCUAGGAUGC [Fiskers BMX 4 - 32] (puzzle: Brourd's mod of Exclusion 4)
apparent KD of MS2 coat protein [3]: 25 nM

AAUUAUUUAUGAGGAUAUUGUGGUGAAACACCACAAGAAGGCAUGAUACACAUGAGGAUCACCCAUGUGAGCCUUAUGCAUAUA [Ex NG1 #57] (Eterna round: R96, puzzle: Exclusion NG 1)
apparent KD of MS2 coat protein [1]: 16.5 nM

GAUCAGGUAGGAUAUGCAGGAUCGGACUUGAGGAUCACCCAAGUGGCCAAAGUGCGUCCCGCAGAAGGGCCAAAAC [Biinxelace] (Eterna round: R97, puzzle: Exclusion 5)
apparent KD of MS2 coat protein (input ligand: FMN 200 uM): 439 nM | apparent KD of MS2 coat protein (input ligand: none): 618 nM

GCCUUGGGAGUCAGGAUAUACAAUAAAAUAAUUAAGUAGAAGGGACAUGAGGAUCACCCAUGUACAUUACAUUG [alecazam30] (Eterna round: R97, puzzle: Brourd's mod of Exclusion 4)
apparent KD of MS2 coat protein (input ligand: FMN 200 uM): 48 nM | apparent KD of MS2 coat protein (input ligand: none): 13.3 nM

CUAAUGAUAGGAUAUACAGCGAGAGUCGACUCUGGUGCUCAACAUGAGGAUCACCCAUGUAGAAGGAUCAGACC [EX2 C.23] (Eterna round: R97, puzzle: Exclusion 2)
apparent KD of MS2 coat protein (input ligand: FMN 200 uM): 35.9 nM | apparent KD of MS2 coat protein (input ligand: none): 18.6 nM

UUUAAUUUUUUUUUUUUACAAGCUUUUUGCUCGUCUUAUACAUGAGGAUCACCCAUGUAAAUGGGAGAUAAAUUAUC [JMF 17] (puzzle: Sensor v3, turn-off variant 2)
apparent KD of MS2 coat protein [2]: 95.9 nM | apparent KD of MS2 coat protein [3]: 52.4 nM | apparent KD of MS2 coat protein [4]: 92.3 nM

GUGCGGUGAGGAUAUACGUAGGUACAGAUCUGUGUGUUCCUACAUGAGGAUCACCCAUGUAGAAGGCAUGGCAC [LRO-Excl2-12] (puzzle: Exclusion 2)
apparent KD of MS2 coat protein [3]: 38.4 nM

GGCGACCUAGGAUAUACAUGAGGAUCACCCAUGUUUAUCUAUUAGAUGAAGACGGGUUGUAGAAGGAGGAUAUU [JL Geriin mod] (Eterna round: R96, puzzle: Exclusion 3)
apparent KD of MS2 coat protein (input ligand: FMN 200 uM): 19.5 nM | apparent KD of MS2 coat protein [1]: 14.6 nM | apparent KD of MS2 coat protein (input ligand: none): 20.2 nM

UACAUGAGGAUCACCCAUGUUUUGUCGUGUAUGGUAUUUAUCUAGGAUAUCAUUUAAUUUAGUUAUGAGAAGGAGAAUAUUAAU [JMF's solution 85] (Eterna round: R96, puzzle: Exclusion NG 3)
apparent KD of MS2 coat protein (input ligand: FMN 200 uM): 31.3 nM | apparent KD of MS2 coat protein [1]: 17 nM | apparent KD of MS2 coat protein (input ligand: none): 27.8 nM

UACCUGAGGCAAAGCUUUAGGUAUACAUGAGGAUCACCCAUGUAGGAUAUGGUAGGCUUUGCUUACCAGAAGGACAUGUUAAUU [Mat - Exclusion NG 3 - Mod of JL - D32] (Eterna round: R96, puzzle: Exclusion NG 3)
apparent KD of MS2 coat protein (input ligand: FMN 200 uM): 161 nM | apparent KD of MS2 coat protein [1]: 30.4 nM | apparent KD of MS2 coat protein (input ligand: none): 39.6 nM

GUUUUCAGACGGAGAUCCUACAUGAGGAUCACCCAUGUCUCUCUUGUUCCUUGCUCGUCUUUUCCUCCUCUGUUCUC [Elimod 33 - Jieux - Sensor, turn-off variant 1] (Eterna round: R97, puzzle: Sensor, turn-off variant 1)
apparent KD of MS2 coat protein (input ligand: FMN 200 uM): 657 nM | apparent KD of MS2 coat protein (input ligand: none): 847 nM

CUGUACUGAGGAUAUACAUGAGGAUCACCCAUGUGUACCAGCUAGGAAACUAGCAAAAGUAGAAGGCAGUACAG [Mat - Exclusion 3 - Eli Mod - D62] (Eterna round: R97, puzzle: Exclusion 3)
apparent KD of MS2 coat protein (input ligand: FMN 200 uM): 27.6 nM | apparent KD of MS2 coat protein (input ligand: none): 13.3 nM

UAGAUGUGAGGAUAUGGUAAAGAUAAGAUGAUGAAAGAACUCCAGAAGGCACAUGAGGAUCACCCAUGUAGAUG [JL-ex4-2.15 Jieux mod] (puzzle: Exclusion 4)
apparent KD of MS2 coat protein [2]: 78.1 nM | apparent KD of MS2 coat protein [3]: 22.3 nM | apparent KD of MS2 coat protein [4]: 26 nM

ACUAUUAGAGGAUAUACAGUUUAUUACAUGAGGAUCACCCAUGUUCUUCAAUGUAUAUAAGUAGAAGGCUAAGGAA [EX-5 Malc#3] (puzzle: Exclusion 5)
apparent KD of MS2 coat protein [2]: 114 nM | apparent KD of MS2 coat protein [3]: 45.9 nM | apparent KD of MS2 coat protein [4]: 38.2 nM

UUUAAUUUUUUUUUUUUACAAGCUUUUUGCUCGUCUUAUACAUGAGGAUCACCCAUGUGGGUGAAAGAUAGAUUGUC [JMF's solution 3] (puzzle: Sensor v3, turn-off variant 2)
apparent KD of MS2 coat protein [2]: 87.2 nM | apparent KD of MS2 coat protein [3]: 20.4 nM | apparent KD of MS2 coat protein [4]: 35.8 nM

CUUAGACAUGAGGAUCACCCAUGUGAGGAUAUGAUGCAGCAGUGGUCUACGCUGUGCAUCAGAAGGCACAUAUG [mod of disincluded 3 v.3 (my top score 87 - 28% A's)] (puzzle: Exclusion 1)
apparent KD of MS2 coat protein [3]: 108 nM

AGCUGUGGCCGAGGAUAUCCACAUGAGGAUCACCCAUGUUGAUACGCCGUUAAAGGCGAUAUAAGGGAGAAGGCGGUCUCAGCA [Eli eng2 - 051] (Eterna round: R96, puzzle: Exclusion NG 2)
apparent KD of MS2 coat protein (input ligand: FMN 200 uM): 12.5 nM | apparent KD of MS2 coat protein [1]: 7.18 nM | apparent KD of MS2 coat protein (input ligand: none): 9.26 nM

CUCCUCAUGGCGCCUAAACACAUGAGGAUCACCCAUGUACAGGCUUUUCGCCGUCUUAUAAUAAAACCGAGGAUGCG [Soislebice] (puzzle: Sensor v3, turn-off variant 1)
apparent KD of MS2 coat protein [2]: 45.6 nM | apparent KD of MS2 coat protein [3]: 300 nM | apparent KD of MS2 coat protein [4]: 47.8 nM

UUGUUGUAUGUAGGAUAUGCAUAUUGUUAUUAUGCAGAAGGACAUGAGGAUCACCCAUGUAUAUUAUUAUUAUAUGUUAUAUAU [Title] (Eterna round: R96, puzzle: Exclusion NG 1)
apparent KD of MS2 coat protein [1]: 17.9 nM

ACAUGAGGAUCACCCAUGUCCGGCUGGUCUGUCUCGGCUGUCGAGGAUAUAGCUCGGUAUCCGCGCUAGAAGGCGGGAGCCGGU [Aenatbe mod 91] (Eterna round: R96, puzzle: Exclusion NG 3)
apparent KD of MS2 coat protein (input ligand: FMN 200 uM): 76.7 nM | apparent KD of MS2 coat protein [1]: 29.4 nM | apparent KD of MS2 coat protein (input ligand: none): 48.8 nM

CAUUGACAUGAGGAUCACCCAUGUCAGGAUAUGCUUCAUGACACGAAAGUGUCAUGAAGCAGAAGGGACAUGCC [SS1 Omei 1] (puzzle: Exclusion 1)
apparent KD of MS2 coat protein [3]: 19.5 nM
